The chains are these.
B1: Rubisco-strep (H. neapolitanus CbbL8S8) (complex)
chain 1: MAVKKYSAGVKEYRQTYWMPEYTPLDSDILACFKITPQPGVDREEAAAAVAAESSTGTWTTVWTDLLTDMDYYKGRAYRIEDVPGDDAAFYAFIAYPIDLFEEGSVVNVFTSLVGNVFGFKAVRGLRLEDVRFPLAYVKTCGGPPHGIQVERDKMNKYGRPLLGCTIKPKLGLSAKNYGRAVYECLRGGLDFTKDDENINSQPFMRWRDRFLFVQDATETAEAQTGERKGHYLNVTAPTPEEMYKRAEFAKEIGAPIIMHDYITGGFTANTGLAKWCQDNGVLLHIHRAMHAVIDRNPNHGIHFRVLTKILRLSGGDHLHTGTVVGKLEGDRASTLGWIDLLRESFIPEDRSRGIFFDQDWGSMPGVFAVASGGIHVWHMPALVNIFGDDSVLQFGGGTLGHPWGNAAGAAANRVALEACVEARNQGRDIEKEGKEILTAAAQHSPELKIAMETWKEIKFEFDTVDKLDTQNR
chain 2: MAEMQDYKQSLKYETFSYLPPMNAERIRAQIKYAIAQGWSPGIEHVEVKNSMNQYWYMWKLPFFGEQNVDNVLAEIEACRSAYPTHQVKLVAYDNYAQSLGLAFVVYRGN
notes: Rubisco large subunit CbbL, H. neapolitanus, alpha-carboxysomal Form IA; residues V3-E457 modelled in the cryo-EM maps; Rubisco small subunit CbbS, H. neapolitanus; residues M4-N110 modelled in the cryo-EM maps; Printed both as 'strep-Rubisco' and 'Rubisco-strep'; plasmid in Dataset S4; also called strep-Rubisco; WT; source: E. coli, coexpressed with GroEL/ES, purified (Strep-tag purification); …
B4: NTD_(1-53)-sfGFP (domain or fragment, H. neapolitanus, UniProt O85042 1-53, looked up)
chain: MNTRNTRSKQRAPFGVSSSVKPRLDLIEQAPNPAYDRHPACITLPERTCRHPL
notes: first 53 residues of CsoSCA (unstructured N-terminal peptide), H. neapolitanus; Fused to monomeric superfolder GFP; Linker, if any, is in Dataset S4; also called NTD_(1-53)-sfGFP-His; source: E. coli, purified (His-tag purification); not shown: sfGFP, C-terminal, kept; His tag, C-terminal, kept

The target in the series “NTD_(1-53)-sfGFP” is B4. The series is described as follows: BLI; 5 μg/mL NTD_(1-53)-sfGFP-His (or point mutant) immobilised on Ni-NTA biosensors; strep-Rubisco (WT 250–3.9 nM, or mutant) as prey; 25 mM Tris pH 7.5, 70 mM NaCl, 0.01% Triton X100; 1:2 (Bivalent Analyte) binding model. To be noted: both partners purified.
The target in the next series is T1, NTD_(1-53)-sfGFP R23A (H. neapolitanus, UniProt O85042 1-53, R23A).
T1 construct: first 53 residues of CsoSCA, H. neapolitanus, with R23A; source: E. coli, purified (His-tag purification); not shown: sfGFP, C-terminal, kept; His tag, C-terminal, kept
T1 sequence (looked up): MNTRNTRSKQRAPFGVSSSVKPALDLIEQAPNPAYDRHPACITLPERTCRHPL
The series is described as above. To be noted: both partners purified.

A further series addresses T2, NTD_(1-53)-sfGFP P22A (H. neapolitanus, UniProt O85042 1-53, P22A).
T2 construct: first 53 residues of CsoSCA, H. neapolitanus, with P22A; source: E. coli, purified (His-tag purification); not shown: sfGFP, C-terminal, kept; His tag, C-terminal, kept
T2 sequence (looked up): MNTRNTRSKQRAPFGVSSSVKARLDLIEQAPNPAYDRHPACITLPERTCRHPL
The description is as above. To be noted: both partners purified.

Series [1] deals with the molecule itself. The experiment in a line: cryo-EM structure; 0.5 μM Rubisco-strep with 0.5 mM NTD_(1-50) peptide; 25 mM Tris pH 7.5, 80 mM NaCl, 2% glycerol; two reconstructions (State-1, State-2), D4 symmetry.
In series [2] the target is B1. The experiment in a line: SEC; NTD_(1-53)-sfGFP and Rubisco-strep mixed 32:1 (NTD_(1-53)-sfGFP:CbbL8S8); Superose 6 Increase 3.2/300; 20 mM Tris pH 7.5, 150 mM NaCl, 4 °C; A280 and A485. The conditions noted are these: both partners purified. In general terms: Size exclusion chromatography separates by hydrodynamic size, large species first.
The target of series [3] is T3, Rubisco-strep (CbbL8S8) from Halothiobacillus neapolitanus (H. neapolitanus, UniProt O85040 1-473; P45686 1-110).
T3 construct: Rubisco large subunit CbbL, Halothiobacillus neapolitanus; Rubisco small subunit CbbS, Halothiobacillus neapolitanus; also called strep-Rubisco; source: E. coli (BL21-A1 or BW25113, see Dataset S4), co-expressed with GroEL/ES, purified (StrepTrap); copies: 8 + 8
The series is described as follows: SEC; Superose 6 Increase 3.2/300, 20 mM Tris pH 7.5, 150 mM NaCl, 4 °C; NTD1-53-sfGFP:CbbL8S8 mixed 32:1; A280 and A485 monitored. The conditions noted are these: both partners purified.

In series [4] the target is T4, CbbS, Rubisco small subunit (as in Rubisco-strep) (H. neapolitanus, UniProt P45686 1-110).
T4 construct: Rubisco small subunit CbbS, H. neapolitanus; residues M4-N110 modelled; Subunit of m2, written on its own for the contacts in the cryo-EM structure; source: E. coli, coexpressed with GroEL/ES, purified as Rubisco-strep
T4 sequence: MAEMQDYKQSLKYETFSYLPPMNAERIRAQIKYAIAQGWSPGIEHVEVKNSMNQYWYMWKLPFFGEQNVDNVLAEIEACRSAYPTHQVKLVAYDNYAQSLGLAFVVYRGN
The experiment in a line: cryo-EM structure; 0.5 μM Rubisco-strep with 0.5 mM NTD_(1-50) peptide; 25 mM Tris pH 7.5, 80 mM NaCl, 2% glycerol; two reconstructions (State-1, State-2), D4 symmetry. The conditions noted are these: both partners purified.

For series [5], the target named is B1. Described as above. The conditions noted are these: both partners purified.

For the molecule B1, in the series with NTD_(1-53)-sfGFP, the “KD2 (second set of the 1:2 fit)” value is 80 ± 1 nM, the “KD (first set of the 1:2 fit)” value was 33 ± 0.4 nM, the “koff2 (second set of the 1:2 fit)” value stood at 0.11 s⁻¹ and the “koff (first set of the 1:2 fit)” value was determined as 0.0069 s⁻¹. Moreover, in the series with NTD_(1-53)-sfGFP, the “kon2 (second set of the 1:2 fit)” value turned out to be 1.4e+06 M⁻¹ s⁻¹ and the “kon (first set of the 1:2 fit)” value stood at 210000 M⁻¹ s⁻¹. In the series with NTD_(1-53)-sfGFP R23A, the “KD2 (second set of the 1:2 fit)” value turned out to be 130 ± 2 nM, the “KD (first set of the 1:2 fit)” value came out at 17 ± 0.2 nM, the “koff2 (second set of the 1:2 fit)” value was 0.061 s⁻¹ and the “koff (first set of the 1:2 fit)” value came to 0.0033 s⁻¹. Also, in the series with NTD_(1-53)-sfGFP R23A, the “kon2 (second set of the 1:2 fit)” value worked out at 460000 M⁻¹ s⁻¹ and the “kon (first set of the 1:2 fit)” value stood at 190000 M⁻¹ s⁻¹. Besides, in the series with NTD_(1-53)-sfGFP P22A, the “KD2 (second set of the 1:2 fit)” value came out at 6.5 ± 0.4 µM, the “KD (first set of the 1:2 fit)” value was 18000 nM, the “koff2 (second set of the 1:2 fit)” value was determined as 0.44 s⁻¹ and the “koff (first set of the 1:2 fit)” value turned out to be 0.044 s⁻¹. In the series with NTD_(1-53)-sfGFP P22A, the “kon2 (second set of the 1:2 fit)” value stood at 68000 M⁻¹ s⁻¹ and the “kon (first set of the 1:2 fit)” value worked out at 2400 M⁻¹ s⁻¹.

B2: CbbL, Rubisco large subunit (as in Rubisco-strep) (natural protein, H. neapolitanus)
chain: MAVKKYSAGVKEYRQTYWMPEYTPLDSDILACFKITPQPGVDREEAAAAVAAESSTGTWTTVWTDLLTDMDYYKGRAYRIEDVPGDDAAFYAFIAYPIDLFEEGSVVNVFTSLVGNVFGFKAVRGLRLEDVRFPLAYVKTCGGPPHGIQVERDKMNKYGRPLLGCTIKPKLGLSAKNYGRAVYECLRGGLDFTKDDENINSQPFMRWRDRFLFVQDATETAEAQTGERKGHYLNVTAPTPEEMYKRAEFAKEIGAPIIMHDYITGGFTANTGLAKWCQDNGVLLHIHRAMHAVIDRNPNHGIHFRVLTKILRLSGGDHLHTGTVVGKLEGDRASTLGWIDLLRESFIPEDRSRGIFFDQDWGSMPGVFAVASGGIHVWHMPALVNIFGDDSVLQFGGGTLGHPWGNAAGAAANRVALEACVEARNQGRDIEKEGKEILTAAAQHSPELKIAMETWKEIKFEFDTVDKLDTQNR
notes: Rubisco large subunit CbbL, H. neapolitanus; residues V3-E457 modelled; Subunit of m2, written on its own for the contacts in the cryo-EM structure; also called CbbLA; CbbLB; source: E. coli, coexpressed with GroEL/ES, purified as Rubisco-strep
In the case of B2, in series [1], the binding result is given as “binds”.

B3: Rubisco D99A (complex, H. neapolitanus)
chain 1: MAVKKYSAGVKEYRQTYWMPEYTPLDSDILACFKITPQPGVDREEAAAAVAAESSTGTWTTVWTDLLTDMDYYKGRAYRIEDVPGDDAAFYAFIAYPIALFEEGSVVNVFTSLVGNVFGFKAVRGLRLEDVRFPLAYVKTCGGPPHGIQVERDKMNKYGRPLLGCTIKPKLGLSAKNYGRAVYECLRGGLDFTKDDENINSQPFMRWRDRFLFVQDATETAEAQTGERKGHYLNVTAPTPEEMYKRAEFAKEIGAPIIMHDYITGGFTANTGLAKWCQDNGVLLHIHRAMHAVIDRNPNHGIHFRVLTKILRLSGGDHLHTGTVVGKLEGDRASTLGWIDLLRESFIPEDRSRGIFFDQDWGSMPGVFAVASGGIHVWHMPALVNIFGDDSVLQFGGGTLGHPWGNAAGAAANRVALEACVEARNQGRDIEKEGKEILTAAAQHSPELKIAMETWKEIKFEFDTVDKLDTQNR
chain 2: MAEMQDYKQSLKYETFSYLPPMNAERIRAQIKYAIAQGWSPGIEHVEVKNSMNQYWYMWKLPFFGEQNVDNVLAEIEACRSAYPTHQVKLVAYDNYAQSLGLAFVVYRGN
notes: Rubisco large subunit CbbL, H. neapolitanus, with D99A (the text places D99 on CbbL); Rubisco small subunit CbbS, H. neapolitanus; Plasmid in Dataset S4; source: E. coli, coexpressed with GroEL/ES, purified (Strep-tag purification); copies: 8 + 8
On to B3, for which, in the series with NTD_(1-53)-sfGFP, the “KD2 (second set of the 1:2 fit)” value was 1100 ± 14 nM, the “KD (first set of the 1:2 fit)” value was found to be 400 ± 10 nM, the “koff2 (second set of the 1:2 fit)” value turned out to be 0.15 s⁻¹ and the “koff (first set of the 1:2 fit)” value was determined as 0.0059 s⁻¹. Further, in the series with NTD_(1-53)-sfGFP, the “kon2 (second set of the 1:2 fit)” value was found to be 130000 M⁻¹ s⁻¹ and the “kon (first set of the 1:2 fit)” value amounted to 15000 M⁻¹ s⁻¹.
Consider B4, for which the binding result in series [2] is on record as “binds”.

B5: Rubisco Y72A (complex, H. neapolitanus)
chain 1: MAVKKYSAGVKEYRQTYWMPEYTPLDSDILACFKITPQPGVDREEAAAAVAAESSTGTWTTVWTDLLTDMDAYKGRAYRIEDVPGDDAAFYAFIAYPIDLFEEGSVVNVFTSLVGNVFGFKAVRGLRLEDVRFPLAYVKTCGGPPHGIQVERDKMNKYGRPLLGCTIKPKLGLSAKNYGRAVYECLRGGLDFTKDDENINSQPFMRWRDRFLFVQDATETAEAQTGERKGHYLNVTAPTPEEMYKRAEFAKEIGAPIIMHDYITGGFTANTGLAKWCQDNGVLLHIHRAMHAVIDRNPNHGIHFRVLTKILRLSGGDHLHTGTVVGKLEGDRASTLGWIDLLRESFIPEDRSRGIFFDQDWGSMPGVFAVASGGIHVWHMPALVNIFGDDSVLQFGGGTLGHPWGNAAGAAANRVALEACVEARNQGRDIEKEGKEILTAAAQHSPELKIAMETWKEIKFEFDTVDKLDTQNR
chain 2: MAEMQDYKQSLKYETFSYLPPMNAERIRAQIKYAIAQGWSPGIEHVEVKNSMNQYWYMWKLPFFGEQNVDNVLAEIEACRSAYPTHQVKLVAYDNYAQSLGLAFVVYRGN
notes: Rubisco large subunit CbbL, H. neapolitanus, with Y72A (the text places Y72 on CbbL); Rubisco small subunit CbbS, H. neapolitanus; Plasmid in Dataset S4; source: E. coli, coexpressed with GroEL/ES, purified (Strep-tag purification); copies: 8 + 8
Turning to B5, in the series with NTD_(1-53)-sfGFP, the “KD2 (second set of the 1:2 fit)” value is 820 ± 11 nM, the “KD (first set of the 1:2 fit)” value turned out to be 320 ± 6 nM, the “koff2 (second set of the 1:2 fit)” value worked out at 0.15 s⁻¹ and the “koff (first set of the 1:2 fit)” value came to 0.0089 s⁻¹. Moreover, in the series with NTD_(1-53)-sfGFP, the “kon2 (second set of the 1:2 fit)” value came to 180000 M⁻¹ s⁻¹ and the “kon (first set of the 1:2 fit)” value came out at 28000 M⁻¹ s⁻¹.

B6: NTD1-53-sfGFP-His, first 53 residues of CsoSCA fused to superfolder GFP (domain or fragment, H. neapolitanus, UniProt O85042 1-53, looked up)
chain: MNTRNTRSKQRAPFGVSSSVKPRLDLIEQAPNPAYDRHPACITLPERTCRHPL
notes: first 53 residues of CsoSCA, Halothiobacillus neapolitanus; source: E. coli (see Dataset S4), purified (His-tag purification)
On to B6, for which the binding result in series [3] is on record as “binds”.

B7: NTD_(1-50) peptide (CsoSCA residue 1-50) (peptide, UniProt O85042 1-50, looked up)
peptide: MNTRNTRSKQRAPFGVSSSVKPRLDLIEQAPNPAYDRHPACITLPERTCR
notes: first 50 residues of CsoSCA, H. neapolitanus; also called NTD peptide; N50 peptide
As to B7, the binding result in series [4] is on record as “binds”. Moreover, the stoichiometry N (commonly a count of units in the complex or per binding partner) in series [5] was found to be 8.

Source of the values: publication PMC10614612, “Identification of a carbonic anhydrase–Rubisco complex within the alpha-carboxysome” (Proceedings of the National Academy of Sciences of the …, 2023).
